Source: patent US20130039923A1 (Novo Nordisk, published 2013)
Changes are numbered by the printed parent chain. Ends that are not written are not given here.

Legend:
[1] = biological target: T1, Peptide no. 46 (Figure 8A); test: Ala-scan peptide array of hIL20 74-96 on cellulose; fluorescein-labelled antibody; fluorescence as OD
T1 construct: Ala-scan peptide on the array; also called Peptide no; Y80A
T1 peptide: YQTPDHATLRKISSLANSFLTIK

[2] = biological target: T2, Peptide no. 61 (Figure 8A); test: as above
T2 construct: Ala-scan peptide on the array; also called Peptide no; K96A
T2 peptide: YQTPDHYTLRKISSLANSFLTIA

[3] = biological target: T3, Peptide no. 50 (Figure 8A); test: as above
T3 construct: Ala-scan peptide on the array; also called Peptide no; K84A
T3 peptide: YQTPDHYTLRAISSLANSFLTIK

[4] = biological target: T4, Peptide no. 41 (Figure 8A); test: as above
T4 construct: Ala-scan peptide on the array; also called Peptide no; Q75A
T4 peptide: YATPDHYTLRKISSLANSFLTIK

[5] = biological target: T5, Peptide no. 48 (Figure 8A); test: as above
T5 construct: Ala-scan peptide on the array; also called Peptide no; L82A
T5 peptide: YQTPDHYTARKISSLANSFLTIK

[6] = biological target: T6, Peptide no. 60 (Figure 8A); test: as above
T6 construct: Ala-scan peptide on the array; also called Peptide no; I95A
T6 peptide: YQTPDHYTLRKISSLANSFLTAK

[7] = biological target: T7, Peptide no. 57 (Figure 8A); test: as above
T7 construct: Ala-scan peptide on the array; also called Peptide no; F92A
T7 peptide: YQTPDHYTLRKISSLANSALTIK

[8] = biological target: T8, Peptide no. 51 (Figure 8A); test: as above
T8 construct: Ala-scan peptide on the array; also called Peptide no; I85A
T8 peptide: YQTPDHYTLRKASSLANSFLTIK

[9] = biological target: T9, Peptide no. 43 (Figure 8A); test: as above
T9 construct: Ala-scan peptide on the array; also called Peptide no; P77A
T9 peptide: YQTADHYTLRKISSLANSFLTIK

[10] = biological target: T10, Peptide no. 42 (Figure 8A); test: as above
T10 construct: Ala-scan peptide on the array; also called Peptide no; T76A
T10 peptide: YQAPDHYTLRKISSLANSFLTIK

[11] = biological target: T11, Peptide no. 54 (Figure 8A); test: as above
T11 construct: Ala-scan peptide on the array; also called Peptide no; L88A
T11 peptide: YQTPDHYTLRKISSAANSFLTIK

[12] = biological target: T12, Peptide no. 44 (Figure 8A); test: as above
T12 construct: Ala-scan peptide on the array; also called Peptide no; D78A
T12 peptide: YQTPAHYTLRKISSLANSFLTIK

[13] = biological target: T13, Peptide no. 47 (Figure 8A); test: as above
T13 construct: Ala-scan peptide on the array; also called Peptide no; T81A
T13 peptide: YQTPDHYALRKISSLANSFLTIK

[14] = biological target: T14, Peptide no. 56 (Figure 8A); test: as above
T14 construct: Ala-scan peptide on the array; also called Peptide no; S91A
T14 peptide: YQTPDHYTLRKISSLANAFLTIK

[15] = biological target: T15, Peptide no. 52 (Figure 8A); test: as above
T15 construct: Ala-scan peptide on the array; also called Peptide no; S86A
T15 peptide: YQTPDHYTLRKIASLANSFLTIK

[16] = biological target: T16, Peptide no. 58 (Figure 8A); test: as above
T16 construct: Ala-scan peptide on the array; also called Peptide no; L93A
T16 peptide: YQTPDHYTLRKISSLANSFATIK

[17] = biological target: T17, Peptide no. 3 (Figures 7A, 7B) (N-terminus acylated); test: array of terminally truncated, acylated hIL20 peptides on cellulose; fluorescein-labelled antibody; fluorescence as OD
T17 construct: peptide array on cellulose
T17 peptide: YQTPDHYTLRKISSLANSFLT

[18] = biological target: T18, Peptide no. 18 (Figures 7A, 7B) (also: N-terminus acylated); test: as above
T18 construct: peptide array on cellulose
T18 peptide: YTLRKISSLANSFLTIK

[19] = biological target: T19, Peptide no. 5 (Figures 7A, 7B) (also: N-terminus acylated); test: as above
T19 construct: peptide array on cellulose
T19 peptide: YQTPDHYTLRKISSLANSF

[20] = biological target: T20, Peptide no. 4 (Figures 7A, 7B) (N-terminus acylated); test: as above
T20 construct: peptide array on cellulose
T20 peptide: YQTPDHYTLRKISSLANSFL

[21] = biological target: T21, Peptide no. 1 (Figures 7A, 7B) (N-terminus acylated); test: as above
T21 construct: peptide array on cellulose
T21 peptide: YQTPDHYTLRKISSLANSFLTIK

B1: human anti-hIL20 monoclonal antibody 15D2 (antibody, V domains shown)
VH: QVQLVQSGAEVKRPGASVKVSCKASGYTFTNDIIHWVRQAPGQRLEWMGWINAGYGNTQYSQNFQDRVSITRDTSASTAYMELISLRSEDTAVYYCAREPLWFGESSPHDYYGMDVWGQGTTVTVSS
VL: AIQLTQSPSSLSASVGDRVTITCRASQGISSALAWYQQKPGKAPKLLIYDASSLESGVPSRFSGSGSGTDFTLTISSLQPEDFATYYCQQFNSYPLTFGGGTKVEIKR
notes: also called 15D2-wt; 15D2 wild-type
B1: binds [1]; binds [2]; binds [3]. B1: binds [4]; binds [5]; binds [6]. B1: binds [7]; binds [8]; binds [9]. B1: binds [10]; binds [11]; binds [12]. B1: binds [13]; binds [14]; binds [15]. B1: binds [16].

B2: human anti-hIL20 monoclonal antibody 5B7 (antibody, human IgG4, V domains shown)
VH: B1 VH with T30S, N31S, D32H, I34M, Q59K, S69T, S106L
VL: B1 VL
notes: described as human IgG4; also called 5B7-wt
B2: binds [17]; no binding [18]; binds [19]. B2: binds [20]; binds [21].
